Source: patent publication US20120207788A1 (BIOMAY, published 2012)

B1: hybrid molecule C (other)
chain: MGAASNKAFAEGLSGEPKGAAESSSKAALTSKLDAAYKLAYKTAEGATPEAKYDAYVATLSEALRIIAGTLEVHAVKPAADLGYGPATPAAPAAGYTPATPAAPAEAAPAGKATTEEQKLIEKINAGFKAALAAAAGVQPADKYRTFVATFSGRGCGSCFEIKCTKPEACSGEPVVVHITDDNEEPIAPYHFDLSGHAFGAMAKKGDEQKLRTGPFTVRYTTEGGTKTEAEDVIPEGWKADTSYESKHHHHHH
B2: hybrid molecule Q (other)
chain: MFRFLTEKGMKNVFDDVVPEKYTIGATYAPEEDEWVAMTKGEGGVWTFDSEEPLQGPFNADKYKTFEAAFTVSSKRNLADAVSKAPQLVPKLDEVYNAAYNAADHAAPEDKYEAFVLHFSEALRIIAGTPEVHAVKPGAVPKVTFTVEKGSNEKHLAVLVKYEGDTMAEVELREHGSHHHHHH
B3: hybrid molecule P (other)
chain: MGAASNKAFAEGLSGEPKGAAESSSKAALTSKLDAAYKLAYKTAEGATPEAKYDAYVATLSEALRIIAGTLEVHAVKPAADLGYGPATPAAPAAGYTPATPAAPAEAAPAGKATTEEQKLIEKINAGFKAALAAAAGVQPADKYRTFVATFSGRGCGSCFEIKCTKPEACSGEPVVVHITDDNEEPIAPYHFDLSGHAFGAMAKKGDEQKLRTGPFTVRYTTEGGTKTEAEDVIPEGWKADTSYESKAEEVKVIPAGELQVIEKVDAAFKVAATAANAAPAAVKQAYAATVATAPEVKYTVFETALKKAITAMSEAQKAAKPAAAATATATAAVGAATGAATAATGGYKVNDKFTVFEAAFNDAIKASTGGAYESYKFIPALEAIPKVPPGPNITATYGDKWLDAKSTWYGKPTGASAGELELQFRRVKCKYPEGTKVTFHVEKGSNPNYLALLVKYVNGDGDVVAVDIKEKGKDKWIELKESWGAIWRIDTPDKLGPKDNGGACGYKDVDKPPFSGMTGCGNTPIFKHHHHHH
B4: hybrid molecule B (other)
chain: MAVKQAYAATVATAPEVKYTVFETALKKAITAMSEAQKAAKPAAAATATATAAVGAATGAATAATGGYKVAEEVKVIPAGELQVIEKVDAAFKVAATAANAAPANDKFTVFEAAFNDAIKASTGGAYESYKFIPALEAIPKVPPGPNITATYGDKWLDAKSTWYGKPTGAGPKDNGGACGYKDVDKPPFSGMTGCGNTPIFKSAGELELQFRRVKCKYPEGTKVTFHVEKGSNPNYLALLVKYVNGDGDVVAVDIKEKGKDKWIELKESWGAIWRIDTPDKLHHHHHH

What follows are binders tested against serum IgE from grass pollen allergic patients (assay: cell-based or functional assay).

Row | Binder | CD203c expression on human basophils isolated from grass pollen allergic patients [fold]
1 | B1 | 10
2 | B2 | 10
3 | B3 | 10
4 | B4 | 10
